Sequences and labels used below:
B1: FcγRIIa-m11-Del4 (receptor)
chain: MGQAAAPPKAVLKLEPPWTNVLQEDSVTLTCQGASDSVLWFHNGNLIPTQTQLTYRFKATSNDSGEYTCQTGQTSLSDPVHLTVLSEWLVLQPPRLEFQEGETIMLRCHSWKDKPLVKVTFFQNGKSQKFSHLDPTFSIPQANHSHSGDYHCTGNIGYTSFSSKPVTITVQGGHHHHHH
B2: FcγRIIa-m11-Del1 (receptor)
chain: MGQAAAPPKAVLKLEPPWTNVLQEDSVTLTCQGARPESDSVLWFHNGNLIPTQTQLTYRFKATSNDSGEYTCQTGQTSLSDPVHLTVLSEWLVLQPPRLEFQEGETIMLRCHSWKDKPLVKVTFFQNGKSQKFSHLDPTFSIPQANHSHSGDYHCTGNIGYTSFSSKPVTITVQGGHHHHHH
B3: FcγRIIa-m11-Del6 (receptor)
chain: MGQAAAPPKAVLKLEPPWTNVLQEDSVTLTCQGDSVLWFHNGNLIPTQTQLTYRFKATSNDSGEYTCQTGQTSLSDPVHLTVLSEWLVLQPPRLEFQEGETIMLRCHSWKDKPLVKVTFFQNGKSQKFSHLDPTFSIPQANHSHSGDYHCTGNIGYTSFSSKPVTITVQGGHHHHHH
B4: FcγRIIa-m11-Del5 (receptor)
chain: MGQAAAPPKAVLKLEPPWTNVLQEDSVTLTCQGADSVLWFHNGNLIPTQTQLTYRFKATSNDSGEYTCQTGQTSLSDPVHLTVLSEWLVLQPPRLEFQEGETIMLRCHSWKDKPLVKVTFFQNGKSQKFSHLDPTFSIPQANHSHSGDYHCTGNIGYTSFSSKPVTITVQGGHHHHHH
B5: FcγRIIa-m11-Del7 (receptor)
chain: MGQAAAPPKAVLKLEPPWTNVLQEDSVTLTCQDSVLWFHNGNLIPTQTQLTYRFKATSNDSGEYTCQTGQTSLSDPVHLTVLSEWLVLQPPRLEFQEGETIMLRCHSWKDKPLVKVTFFQNGKSQKFSHLDPTFSIPQANHSHSGDYHCTGNIGYTSFSSKPVTITVQGGHHHHHH
B6: FcγRIIa-m11-Del3 (receptor)
chain: MGQAAAPPKAVLKLEPPWTNVLQEDSVTLTCQGARSDSVLWFHNGNLIPTQTQLTYRFKATSNDSGEYTCQTGQTSLSDPVHLTVLSEWLVLQPPRLEFQEGETIMLRCHSWKDKPLVKVTFFQNGKSQKFSHLDPTFSIPQANHSHSGDYHCTGNIGYTSFSSKPVTITVQGGHHHHHH
B7: FcγRIIa-m11 (receptor)
chain: MGQAAAPPKAVLKLEPPWTNVLQEDSVTLTCQGARSPESDSVLWFHNGNLIPTQTQLTYRFKATSNDSGEYTCQTGQTSLSDPVHLTVLSEWLVLQPPRLEFQEGETIMLRCHSWKDKPLVKVTFFQNGKSQKFSHLDPTFSIPQANHSHSGDYHCTGNIGYTSFSSKPVTITVQGGHHHHHH
B8: FcγRIIa-m11-Del2 (receptor)
chain: MGQAAAPPKAVLKLEPPWTNVLQEDSVTLTCQGARPSDSVLWFHNGNLIPTQTQLTYRFKATSNDSGEYTCQTGQTSLSDPVHLTVLSEWLVLQPPRLEFQEGETIMLRCHSWKDKPLVKVTFFQNGKSQKFSHLDPTFSIPQANHSHSGDYHCTGNIGYTSFSSKPVTITVQGGHHHHHH
B9: FcγRIIa-m10A (receptor)
chain: MGQAAAPPKAVLKLEPPWTNVLQEDSVTLTCQGARSPESDSVLWFHNGNLIPTQTQPTYRFKATSNDSGEYTCQTGQTSLSDPVHLTVLSEWLVLQPPRLEFQEGETIMLRCHSWKDKPLVKVTFFQNGKSQKFSHLDPTFSIPQANHSHSGDYHCTGNIGYTSFSSKPVTITVQGGHHHHHH
B10: FcγRIIa-m10C (receptor)
chain: MGQAAAPPKAVLKLEPPWINVLQEDSVTLTCQGARSPESDSVLWFHNGNLIPTQTQLTYRFKATSNDSGEYTCQTGQTSLSDPVHLTVLSEWLVLQPPRLEFQEGETIMLRCHSWKDKPLVKVTFFQNGKSQKFSHLDPTFSIPQANHSHSGDYHCTGNIGYTSFSSKPVTITVQGGHHHHHH
B11: FcγRIIa-m10B (receptor)
chain: MGQAAAPPKAVLKLEPPWTNVLQEDSVTLTCQGARSPESDSVQWFHNGNLIPTQTQLTYRFKATSNDSGEYTCQTGQTSLSDPVHLTVLSEWLVLQPPRLEFQEGETIMLRCHSWKDKPLVKVTFFQNGKSQKFSHLDPTFSIPQANHSHSGDYHCTGNIGYTSFSSKPVTITVQGGHHHHHH

The target of one test is gamma-globulin preparation (The Chemo-Sero-Therapeutic Research Institute), a human antibody (human). In words: ELISA on immobilised human gamma-globulin, anti-6His detection; antibody binding activity after acid treatment (pH 3.0, 72 h, 30 C) divided by that without treatment. (In general: ELISA stands for enzyme-linked immunosorbent assay.)
Molecule B1 gave an RESIDUAL ACTIVITY [%] of 76.7%.

For the molecule B2, the RESIDUAL ACTIVITY [%] amounted to 89.8%.

Molecule B3 displayed an RESIDUAL ACTIVITY [%] of 25.4%.

Molecule B4 returned an RESIDUAL ACTIVITY [%] of 86.5%.

Molecule B5 registered an RESIDUAL ACTIVITY [%] of 33.3%.

For B6, the RESIDUAL ACTIVITY [%] worked out at 72.4%.

B7: the RESIDUAL ACTIVITY [%] stood at 83.6%.

The molecule B8 registered an RESIDUAL ACTIVITY [%] of 81.3%.

Another test shares this target. In words: ELISA on immobilised human gamma-globulin, anti-6His detection; antibody binding activity after acid treatment (pH 3.0, 24 h, 30 C) divided by that without treatment.
Molecule B7 returned an RESIDUAL ACTIVITY [%] of 95.3%.

Molecule B9 had an RESIDUAL ACTIVITY [%] of 77.3%.

As to B10, the RESIDUAL ACTIVITY [%] amounted to 72.9%.

Take B11: the RESIDUAL ACTIVITY [%] came out at 46.9%.

The values above are taken from patent EP3757216B1.
